According to publication PMC5551713 (The Journal of Cell Biology, 2017):
Each block holds one molecule with its values, some of them ahead of it.

Experiments:
Assay in all cases: negative-stain TEM
[1] = molecular target: platelet PFK1 (PFKP), phosphofructokinase-1 (human) (UniProt Q01813)
[2] = molecular target: PFKL-H199Y, point mutant at the sugar substrate binding site (human) (UniProt P17858)
[3] = molecular target: muscle PFK1 (PFKM), phosphofructokinase-1, 780-amino-acid isoform 2 (human) (UniProt P08237)
negative-stain TEM = molecular target: the molecule itself

Molecule: platelet PFK1 (PFKP), phosphofructokinase-1 (from UniProt Q01813 1-784) (enzyme)
- stoichiometry N [1]: 4

- stoichiometry N [2]: 4
Molecule: PFKL-H199Y, point mutant at the sugar substrate binding site (from UniProt P17858-1 1-780) (enzyme)

Molecule: muscle PFK1 (PFKM), phosphofructokinase-1, 780-amino-acid isoform 2 (from UniProt P08237-1 1-780) (enzyme)
- stoichiometry N [3]: 4

B1: liver PFK1 (PFKL), phosphofructokinase-1, 780-amino-acid isoform b (enzyme, human, UniProt P17858-1 1-780, looked up)
chain: MAAVDLEKLRASGAGKAIGVLTSGGDAQGMNAAVRAVTRMGIYVGAKVFLIYEGYEGLVEGGENIKQANWLSVSNIIQLGGTIIGSARCKAFTTREGRRAAAYNLVQHGITNLCVIGGDGSLTGANIFRSEWGSLLEELVAEGKISETTARTYSHLNIAGLVGSIDNDFCGTDMTIGTDSALHRIMEVIDAITTTAQSHQRTFVLEVMGRHCGYLALVSALASGADWLFIPEAPPEDGWENFMCERLGETRSRGSRLNIIIIAEGAIDRNGKPISSSYVKDLVVQRLGFDTRVTVLGHVQRGGTPSAFDRILSSKMGMEAVMALLEATPDTPACVVTLSGNQSVRLPLMECVQMTKEVQKAMDDKRFDEATQLRGGSFENNWNIYKLLAHQKPPKEKSNFSLAILNVGAPAAGMNAAVRSAVRTGISHGHTVYVVHDGFEGLAKGQVQEVGWHDVAGWLGRGGSMLGTKRTLPKGQLESIVENIRIYGIHALLVVGGFEAYEGVLQLVEARGRYEELCIVMCVIPATISNNVPGTDFSLGSDTAVNAAMESCDRIKQSASGTKRRVFIVETMGGYCGYLATVTGIAVGADAAYVFEDPFNIHDLKVNVEHMTEKMKTDIQRGLVLRNEKCHDYYTTEFLYNLYSSEGKGVFDCRTNVLGHLQQGGAPTPFDRNYGTKLGVKAMLWLSEKLREVYRKGRVFANAPDSACVIGLKKKAVAFSPVTELKKDTDFEHRMPREQWWLSLRLMLKMLAQYRISMAAYVSGELEHVTRRTLSMDKGF
- stoichiometry N (negative-stain TEM): 4
